Measured values published in patent US20070060521A1.

Assays:
[1] = molecular target: GST-Stat3 fusion protein (full-length STAT3 fused to bacterial glutathione S-transferase); experiment: phage display panning on GST-Stat3, clones sequenced after selection
[2] = molecular target: GST fusion protein containing the isolated SH2 domain of STAT3; experiment: phage display panning on the isolated SH2 domain of STAT3, clones sequenced after selection
Sequence of GST fusion protein containing the isolated SH2 domain of STAT3 (P40763 580-670): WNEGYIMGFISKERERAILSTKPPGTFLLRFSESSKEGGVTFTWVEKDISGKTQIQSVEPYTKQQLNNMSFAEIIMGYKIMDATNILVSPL

Sequence of GST-Stat3 fusion protein (full-length STAT3 fused to bacterial glutathione S-transferase) (P40763 whole entry, the tested form may be a part): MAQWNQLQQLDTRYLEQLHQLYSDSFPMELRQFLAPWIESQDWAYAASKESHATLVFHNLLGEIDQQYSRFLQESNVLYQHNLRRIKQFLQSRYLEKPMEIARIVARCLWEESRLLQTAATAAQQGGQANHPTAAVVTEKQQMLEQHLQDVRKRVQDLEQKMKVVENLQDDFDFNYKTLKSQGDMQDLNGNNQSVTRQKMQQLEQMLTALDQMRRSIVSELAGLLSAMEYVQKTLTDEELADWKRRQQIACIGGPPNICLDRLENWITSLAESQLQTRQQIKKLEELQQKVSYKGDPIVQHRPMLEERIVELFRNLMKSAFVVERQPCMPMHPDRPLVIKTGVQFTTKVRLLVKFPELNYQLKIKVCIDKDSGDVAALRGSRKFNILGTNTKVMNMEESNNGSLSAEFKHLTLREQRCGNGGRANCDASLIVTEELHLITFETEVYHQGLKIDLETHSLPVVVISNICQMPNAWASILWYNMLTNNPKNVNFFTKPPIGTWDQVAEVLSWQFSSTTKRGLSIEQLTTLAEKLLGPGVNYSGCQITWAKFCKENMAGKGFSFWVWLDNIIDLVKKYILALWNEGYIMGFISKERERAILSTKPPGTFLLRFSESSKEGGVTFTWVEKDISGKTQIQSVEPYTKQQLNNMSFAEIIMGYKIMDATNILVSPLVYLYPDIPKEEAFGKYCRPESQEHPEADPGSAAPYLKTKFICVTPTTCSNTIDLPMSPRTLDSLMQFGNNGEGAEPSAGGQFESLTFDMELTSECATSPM

Binder	Frequency (out of 100 clones) [1] [%]	Frequency (out of 100 clones) [2] [%]
IQSPHFF (peptide, not shown: small tags and cut ends; large carriers) [IQSPHFF (SEQ ID NO:19)]		6
ASTLPKA (peptide, not shown: small tags and cut ends; large carriers) [ASTLPKA (SEQ ID NO:18)]		7
QDVHLTQQSRYTGGGS (peptide, not shown: large carriers) [… (SEQ ID NO:13)]	13	
HAIYPRN (peptide, not shown: small tags and cut ends; large carriers) [HAIYPRN (SEQ ID NO:17)]		16

Continued, values first:

Frequency (out of 100 clones) [1] [%]	Frequency (out of 100 clones) [2] [%]	Binder
9		SHPWNAQRELSVGGGS (peptide, not shown: large carriers) [… (SEQ ID NO:14)]
8		YPAPQPLVTKTSGGGS (peptide, not shown: large carriers) [… (SEQ ID NO:15)]
8		FSYPLTRAPLNMGGGS (peptide, not shown: large carriers) [… (SEQ ID NO:16)]
